*1 amine or outer side, *2 acyl side, *3 side chain or, on linkers, in order; H or OH if unused. Where no end group is shown, it is not given here. Side-chain parts run from the residue outwards. [ ]: non-standard residue; d: D form. The star is where a group is joined. C16 diacid = O=C(O)CCCCCCCCCCCCCCC(=O)*; γGlu = O=C(O)[C@H](CCC(=O)[*:2])N[*:1]; Palmitoyl = CCCCCCCCCCCCCCCC(=O)*; Decanoyl = CCCCCCCCCC(=O)*; Aib = CC(C)(N)C(=O)O

The labels stand for the following.
T1: human glucose-dependent insulinotropic polypeptide receptor (human, UniProt P48546 22-466)
T1 sequence (looked up): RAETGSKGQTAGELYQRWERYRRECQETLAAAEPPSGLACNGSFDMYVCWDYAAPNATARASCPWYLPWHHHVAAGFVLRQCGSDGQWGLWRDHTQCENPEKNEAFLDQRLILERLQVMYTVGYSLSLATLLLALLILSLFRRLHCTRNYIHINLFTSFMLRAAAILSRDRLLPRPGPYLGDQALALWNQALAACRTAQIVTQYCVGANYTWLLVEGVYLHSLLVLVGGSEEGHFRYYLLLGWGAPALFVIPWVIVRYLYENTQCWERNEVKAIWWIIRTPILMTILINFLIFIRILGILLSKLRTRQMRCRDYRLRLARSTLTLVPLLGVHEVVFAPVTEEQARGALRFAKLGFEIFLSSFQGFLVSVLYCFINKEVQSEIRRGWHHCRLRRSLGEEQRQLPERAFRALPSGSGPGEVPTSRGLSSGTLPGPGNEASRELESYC

T2: human glucagon-like peptide-2 receptor (human, UniProt O95838 1-553)
T2 sequence (looked up): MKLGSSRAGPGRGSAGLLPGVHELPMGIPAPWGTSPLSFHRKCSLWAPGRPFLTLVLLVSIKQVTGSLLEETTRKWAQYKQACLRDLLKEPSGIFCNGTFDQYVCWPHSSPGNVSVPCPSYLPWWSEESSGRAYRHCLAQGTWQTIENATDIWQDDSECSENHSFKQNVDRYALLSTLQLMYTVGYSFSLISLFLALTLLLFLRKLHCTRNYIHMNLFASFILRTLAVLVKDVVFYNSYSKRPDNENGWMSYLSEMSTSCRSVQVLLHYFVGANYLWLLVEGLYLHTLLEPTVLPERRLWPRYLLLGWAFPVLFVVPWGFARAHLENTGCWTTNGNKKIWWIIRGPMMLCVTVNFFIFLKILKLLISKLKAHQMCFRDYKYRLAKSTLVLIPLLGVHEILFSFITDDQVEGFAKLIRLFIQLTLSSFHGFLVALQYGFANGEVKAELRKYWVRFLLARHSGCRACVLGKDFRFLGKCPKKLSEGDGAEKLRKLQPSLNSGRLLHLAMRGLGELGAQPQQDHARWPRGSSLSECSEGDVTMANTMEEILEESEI

B1: Compound no. 2 (peptide)
peptide: Palmitoyl-HADGTFISDYSTILDNLAARDFINWLIQTKIT
B2: Compound no. 41 (peptide)
peptide: {C16 diacid}-H[Aib]EGTFISDYST[Aib]LDALAARDFINWLIQTKITKNDWKHNITQ-OH
B3: Compound no. 42 (peptide)
peptide: {C16 diacid}-H[Aib]DGTFISDYST[Aib]LDNLAAKDFINWLIQTKITKNDWKHNITQ-OH
B4: Compound no. 40 (peptide)
peptide: {C16 diacid}-H[Aib]DGTFISDYST[Aib]LDNLAARDFINWLIQTKITKNDWKHNITQ-OH
B5: Compound no. 38 (peptide)
peptide: Ac-H[Aib]DGTFISDYK([γGlu-Palmitoyl])T[Aib]LDNLAARDFINWLIQTKITKNDWKHNITQ-OH
B6: Compound no. 44 (peptide)
peptide: Decanoyl-H[Aib]DGTFISDYST[Aib]LDNLAARDFINWLIQTKITK-OH
SMILES: CCCCCCCCCC(=O)N[C@@H](Cc1c[nH]cn1)C(=O)NC(C)(C)C(=O)N[C@@H](CC(=O)O)C(=O)NCC(=O)N[C@H](C(=O)N[C@@H](Cc1ccccc1)C(=O)N[C@H](C(=O)N[C@@H](CO)C(=O)N[C@@H](CC(=O)O)C(=O)N[C@@H](Cc1ccc(O)cc1)C(=O)N[C@@H](CO)C(=O)N[C@H](C(=O)NC(C)(C)C(=O)N[C@@H](CC(C)C)C(=O)N[C@@H](CC(=O)O)C(=O)N[C@@H](CC(N)=O)C(=O)N[C@@H](CC(C)C)C(=O)N[C@@H](C)C(=O)N[C@@H](C)C(=O)N[C@@H](CCCNC(=N)N)C(=O)N[C@@H](CC(=O)O)C(=O)N[C@@H](Cc1ccccc1)C(=O)N[C@H](C(=O)N[C@@H](CC(N)=O)C(=O)N[C@@H](Cc1c[nH]c2ccccc12)C(=O)N[C@@H](CC(C)C)C(=O)N[C@H](C(=O)N[C@@H](CCC(N)=O)C(=O)N[C@H](C(=O)N[C@@H](CCCCN)C(=O)N[C@H](C(=O)N[C@H](C(=O)N[C@@H](CCCCN)C(=O)O)[C@@H](C)O)[C@@H](C)CC)[C@@H](C)O)[C@@H](C)CC)[C@@H](C)CC)[C@@H](C)O)[C@@H](C)CC)[C@@H](C)O
B7: Compound no. 46 (peptide)
peptide: Palmitoyl-HADGTFISDYSTILDNLAARDFINWLLAQKITK
B8: Compound no. 39 (peptide)
peptide: {C16 diacid}-HADGTFISDYST[Aib]LDNLAARDFINWLIQTKITKNDWKHNITQ

One assay concerns the target T1, human glucose-dependent insulinotropic …. Kind of assay: cell-based or functional assay.
In the case of B1, the “Efficacy GIPR” value is 80%.
Still for that read-out and setting: the figure for B2 is 91%.
On the same count and under the same terms, the figure for B3 is 91%.
For the molecule B4, the “EC50 (nM) GIPR” value is 1 nM and the “Efficacy GIPR” value is 94%.
As to B5, the “Efficacy GIPR” value was found to be 81%.
The same measure, in the same setting: the same measure for B6: 110%; for B7: 98%.
Regarding B8, the “Efficacy GIPR” value came out at 99%.

A further assay addresses T2, human glucagon-like peptide-2 receptor. The assay is described as follows: cell-based or functional assay.
For the molecule B1, the “Efficacy GLP-2R” value amounted to 59%.
On to B2, for which the “Efficacy GLP-2R” value came to 74% and the “logEC50 GLP-2R” value came to 8.8.
As for B3, the “Efficacy GLP-2R” value was found to be 93%.
Consider B4, for which the “Efficacy GLP-2R” value came out at 96% and the “logEC50 GLP-2R” value was found to be 9.
On to B5, for which the “Efficacy GLP-2R” value turned out to be 89%.
For B6, the “Efficacy GLP-2R” value was 100%.
As to B7, the “Efficacy GLP-2R” value was 82%.
For B8, the “EC50 (nM) GLP-2R” value was determined as 1 nM, the “Efficacy GLP-2R” value turned out to be 78% and the “logEC50 GLP-2R” value amounted to 9.

The record behind these values is patent US20250304643A1 (BAINAN BIOTECH, published 2025).
